Experimental data published in patent US20250277054A1.

Experiments:
[1] = target: human PSMA on human prostate cancer cells (LNCaP, C4-2, 22Rv1) (human) (UniProt Q04609); test: flow cytometry on LNCaP cells
[2] = target: Mouse PSMA.ECD.His (Acro) (mouse) (UniProt O35409); test: ELISA, coated mouse PSMA protein (His tag)
[3] = target: Human PSMA.ECD.His (Acro) (human) (UniProt Q04609); test: ELISA, human PSMA ECD captured by anti-His antibody
[4] = target: full-length cynomolgus PSMA on Flp-in CHO cells (WBP3xx042-FlpinCHO.cPro1.B7) (cynomolgus); test: flow cytometry on cynomolgus PSMA-expressing CHO cells
[5] = target: Cyno PSMA.ECD.His (Acro) (cynomolgus); test: ELISA, cynomolgus PSMA ECD captured by anti-His antibody
[6] = target: Cyno PSMA.ECD.His (Acro) (cynomolgus); test: SPR (Biacore 8K), antibody captured by anti-human IgG Fc, PSMA injected, 1:1 model
[7] = target: Human PSMA.ECD.His (Acro) (human) (UniProt Q04609); test: as above
[8] = target: human PSMA on human prostate cancer cells (LNCaP, C4-2, 22Rv1) (human) (UniProt Q04609); test: flow cytometry on 22Rv1 cells (PSMA low)
[9] = target: human PSMA on human prostate cancer cells (LNCaP, C4-2, 22Rv1) (human) (UniProt Q04609); test: flow cytometry on C4-2 cells (PSMA high)
[10] = target: human PSMA on human prostate cancer cells (LNCaP, C4-2, 22Rv1) (human) (UniProt Q04609); test: flow cytometry on LNCaP cells (PSMA high)
[11] = target: Human PSMA.ECD.His (Acro) (human) (UniProt Q04609); test: ELISA, coated human PSMA protein (His tag)
[12] = target: full-length cynomolgus PSMA on Flp-in CHO cells (WBP3xx042-FlpinCHO.cPro1.B7) (cynomolgus); test: flow cytometry on FlpInCHO-cyno PSMA cells
[13] = target: Cyno PSMA.ECD.His (Acro) (cynomolgus); test: ELISA, coated cynomolgus PSMA protein (His tag)
[14] = target: Biotinylated Human PSMA/FOLH1 Protein, His, Avitag (human) (UniProt Q04609); test: SPR (Biacore 8K), biotinylated human PSMA captured on streptavidin chip, antibody injected, single-cycle, 1:1 model
Sequence of Biotinylated Human PSMA/FOLH1 Protein, His, Avitag (human) (Q04609 44-750 limits assumed): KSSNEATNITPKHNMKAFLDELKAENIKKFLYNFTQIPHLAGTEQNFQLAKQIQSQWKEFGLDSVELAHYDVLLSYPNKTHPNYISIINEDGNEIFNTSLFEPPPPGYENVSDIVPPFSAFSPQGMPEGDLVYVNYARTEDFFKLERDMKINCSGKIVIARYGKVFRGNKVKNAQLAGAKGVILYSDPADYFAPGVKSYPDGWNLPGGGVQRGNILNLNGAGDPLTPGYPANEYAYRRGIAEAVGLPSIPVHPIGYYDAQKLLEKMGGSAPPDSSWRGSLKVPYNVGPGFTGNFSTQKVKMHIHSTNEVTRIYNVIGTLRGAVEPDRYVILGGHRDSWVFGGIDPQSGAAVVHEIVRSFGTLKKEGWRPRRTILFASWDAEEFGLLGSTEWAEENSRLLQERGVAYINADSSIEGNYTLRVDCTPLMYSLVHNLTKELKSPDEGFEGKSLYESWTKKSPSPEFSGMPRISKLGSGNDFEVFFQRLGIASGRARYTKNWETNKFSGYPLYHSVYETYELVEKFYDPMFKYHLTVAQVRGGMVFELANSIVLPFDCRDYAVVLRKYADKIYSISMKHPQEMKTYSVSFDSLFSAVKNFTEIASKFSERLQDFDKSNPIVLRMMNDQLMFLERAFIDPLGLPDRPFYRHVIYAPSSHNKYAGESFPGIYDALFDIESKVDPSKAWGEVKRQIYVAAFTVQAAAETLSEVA

Sequence of Human PSMA.ECD.His (Acro) (human) (Q04609 44-750): as the sequence (Q04609 44-750 limits assumed) above
Sequence of Mouse PSMA.ECD.His (Acro) (mouse) (O35409 45-752): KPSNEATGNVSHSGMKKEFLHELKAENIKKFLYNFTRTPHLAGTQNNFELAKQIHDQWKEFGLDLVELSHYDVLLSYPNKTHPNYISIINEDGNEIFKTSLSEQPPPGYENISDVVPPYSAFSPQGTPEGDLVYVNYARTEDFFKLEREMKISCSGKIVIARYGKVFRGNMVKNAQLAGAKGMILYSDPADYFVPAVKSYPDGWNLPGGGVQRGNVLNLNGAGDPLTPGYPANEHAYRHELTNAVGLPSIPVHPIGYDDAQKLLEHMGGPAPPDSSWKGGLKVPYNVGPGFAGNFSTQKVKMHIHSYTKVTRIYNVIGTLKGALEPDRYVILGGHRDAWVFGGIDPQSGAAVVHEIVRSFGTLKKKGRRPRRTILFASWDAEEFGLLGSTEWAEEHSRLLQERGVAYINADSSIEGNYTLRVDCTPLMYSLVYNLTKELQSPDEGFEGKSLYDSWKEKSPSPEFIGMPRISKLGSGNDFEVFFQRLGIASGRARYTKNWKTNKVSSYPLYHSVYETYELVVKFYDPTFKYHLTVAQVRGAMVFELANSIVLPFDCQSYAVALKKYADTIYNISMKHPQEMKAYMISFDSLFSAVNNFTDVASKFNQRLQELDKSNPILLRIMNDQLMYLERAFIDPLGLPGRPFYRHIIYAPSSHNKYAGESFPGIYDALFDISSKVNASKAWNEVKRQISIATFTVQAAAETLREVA
Sequence of human PSMA on human prostate cancer cells (LNCaP, C4-2, 22Rv1) (human) (Q04609 whole entry, the tested form may be a part): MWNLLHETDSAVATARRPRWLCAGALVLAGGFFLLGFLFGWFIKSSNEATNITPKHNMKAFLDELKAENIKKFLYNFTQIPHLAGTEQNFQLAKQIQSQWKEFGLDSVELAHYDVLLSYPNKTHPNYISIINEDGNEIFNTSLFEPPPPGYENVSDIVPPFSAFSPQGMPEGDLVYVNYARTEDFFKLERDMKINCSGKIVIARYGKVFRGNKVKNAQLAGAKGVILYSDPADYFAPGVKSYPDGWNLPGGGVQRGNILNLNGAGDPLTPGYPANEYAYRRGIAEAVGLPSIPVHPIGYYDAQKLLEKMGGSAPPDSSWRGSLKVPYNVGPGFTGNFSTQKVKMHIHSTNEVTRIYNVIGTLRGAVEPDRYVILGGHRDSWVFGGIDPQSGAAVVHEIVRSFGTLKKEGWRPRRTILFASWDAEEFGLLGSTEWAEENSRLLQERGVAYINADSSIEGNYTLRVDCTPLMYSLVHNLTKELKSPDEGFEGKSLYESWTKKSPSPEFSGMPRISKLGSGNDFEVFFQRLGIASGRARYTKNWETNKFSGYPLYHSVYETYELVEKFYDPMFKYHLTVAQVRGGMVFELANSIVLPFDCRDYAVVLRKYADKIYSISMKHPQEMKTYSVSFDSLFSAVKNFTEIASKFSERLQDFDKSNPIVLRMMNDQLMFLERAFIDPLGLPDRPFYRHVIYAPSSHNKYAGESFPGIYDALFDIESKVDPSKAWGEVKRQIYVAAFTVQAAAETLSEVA

Row | Substance | Max MFI [1] | Max OD450 [3] | EC50 [4] | Max MFI [4] | EC50 [5] | Max OD450 [5] | Max MFI [8] | Max MFI [9] | Max MFI [10] | Max OD450-540 [2] | Max OD450-540 [11] | Max MFI [12] | Max OD450-540 [13] | EC50 [8] | EC50 [9] | EC50 [10] | Kd [14] | other results
1 | human IgG isotype antibody (negative control) | 47.7 MFI | 0.263 OD450 | > 100 nM | 34.8 MFI | > 10 nM | 0.258 OD450 | – | – | – | – | – | – | – | – | – | – | – | EC50 [2]: > 100 nM; Max OD450 [2]: 0.093 OD450
2 | J591 antibody (W3XX042-BMK1) | 3590 MFI | 2.34 OD450 | 3.63 nM | 93300 MFI | 0.011 nM | 2.79 OD450 | – | – | – | – | – | – | – | – | – | – | – | EC50 [1]: 0.48 nM; EC50 [3]: 0.077 nM; Kd [6]: 1.82 nM; koff [6]: 0.000192 s⁻¹; Kd [7]: 1.27 nM
3 | AMG 340/TNB-585 (BMK1) (bispecific antibody) | – | – | – | – | – | – | 5280 MFI | 34700 MFI | 16300 MFI | 0.05 OD450-540 | – | 2870 MFI | – | 174 nM | 35.3 nM | 55.7 nM | 32.3 nM | koff [14]: 0.00378 s⁻¹; kon [14]: 117000 M⁻¹ s⁻¹

The next lines start with results.

Row | Max MFI [1] | Max OD450 [3] | EC50 [4] | Max MFI [4] | EC50 [5] | Max OD450 [5] | Max MFI [8] | Max MFI [9] | Max MFI [10] | Max OD450-540 [2] | Max OD450-540 [11] | Max MFI [12] | Max OD450-540 [13] | EC50 [8] | EC50 [9] | EC50 [10] | Kd [14] | Substance | other results
4 | – | – | – | – | – | – | 372 MFI | 138 MFI | 181 MFI | 0.09 OD450-540 | 0.04 OD450-540 | 19.9 MFI | 0.04 OD450-540 | – | – | – | – | isotype hIgG4 control (antibody) | –
5 | – | – | – | – | – | – | 5910 MFI | 34200 MFI | 19100 MFI | 0.09 OD450-540 | 3.52 OD450-540 | 62900 MFI | 3.57 OD450-540 | 46.1 nM | 34.4 nM | 30.8 nM | 36.7 nM | AMG 160 (BMK2) (bispecific antibody) | EC50 [11]: 0.22 nM; EC50 [12]: 55.8 nM; EC50 [13]: 0.48 nM
